Values belong to the molecule of their own block, whether it stands above or below them.
How the values were obtained:
[1] = target: Cre^Yang (R72E/L115D/R199D) (UniProt P06956); test: native MS
cryo-EM structure = target: the molecule itself; test: cryo-EM structure

percent of the 2:1 protein:loxP complexes (ion counts) [1]: 36%
Molecule: Cre^Yin (D33A/A36V/R192A) (from UniProt P06956 1-343) (enzyme)

B1: Cre^K201A (enzyme)
chain: MSNLLTVHQNLPALPVDATSDEVRKNLMDMFRDRQAFSEHTWKMLLSVCRSWAAWCKLNNRKWFPAEPEDVRDYLLYLQARGLAVKTIQQHLGQLNMLHRRSGLPRPSDSNAVSLVMRRIRKENVDAGERAKQALAFERTDFDQVRSLMENSDRCQDIRNLAFLGIAYNTLLRIAEIARIRVKDISRTDGGRMLIHIGRTATLVSTAGVEKALSLGVTKLVERWISVSGVADDPNNYLFCRVRKNGVAAPSATSQLSTRALEGIFEATHRLIYGAKDDSGQRYLAWSGHSARVGAARDMARAGVSIPEIMQAGGWTNVNIVMNYIRNLDSETGAMVRLLEDGD
stoichiometry N (cryo-EM structure): 4
